Test [1] has as its target CVS-11 rabies virus (rabies virus) (UniProt O92284). The test is described as follows: cell-based or functional assay.
The target of test [2] is Inactivated Rabies Virus Vaccine (Rabipur®, Chiron Behring GmbH & Co.) (rabies virus). The experiment in a line: ELISA, plate coated with 1/500-diluted Rabipur, anti-human IgG Fcγ-HRP detection. Background: In an ELISA, binding on a coated surface is turned into a signal by an enzyme label.
Test [3] shares this target.

Numbering of substitutions follows the chain as printed.

Chain of UniProt O92284 (O92284 20-524): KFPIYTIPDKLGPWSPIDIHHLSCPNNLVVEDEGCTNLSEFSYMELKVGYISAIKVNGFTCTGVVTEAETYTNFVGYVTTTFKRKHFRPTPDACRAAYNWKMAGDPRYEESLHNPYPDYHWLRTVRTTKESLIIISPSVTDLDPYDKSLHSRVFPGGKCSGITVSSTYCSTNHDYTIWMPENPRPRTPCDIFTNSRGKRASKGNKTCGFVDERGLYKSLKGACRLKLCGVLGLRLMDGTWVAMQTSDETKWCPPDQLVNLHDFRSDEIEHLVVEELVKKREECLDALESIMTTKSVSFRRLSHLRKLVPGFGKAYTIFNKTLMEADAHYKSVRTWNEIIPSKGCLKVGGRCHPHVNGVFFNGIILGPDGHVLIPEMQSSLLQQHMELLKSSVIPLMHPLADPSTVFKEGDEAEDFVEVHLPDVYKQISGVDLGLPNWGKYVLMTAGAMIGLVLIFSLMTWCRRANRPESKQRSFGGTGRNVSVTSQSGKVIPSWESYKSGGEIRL

B1: Ch1A9 (antibody, V domains shown)
VH: EIQLQQTGPELVKPGASVKISCKASGYSFTDYIMLWVKQSHGKSLEWIGDIYPYYGSTSYNLKFKGKATLTVDKSSSTAYMQLNSLTSEDSAVYYCARQGGDGNYVLFDYWGQGTTLTVSS
VL: DIVMTQSQKFMSTSVGDRVSVTCKASQNVGTTVAWYQQKPGQSPKALIYSASYRYSGVPDRFTGSGSGTDFTLTISNVQSEDLAEYFCQQYNSYPFTFGSGTKLEIKR
B1: in test [1], the Neutralization potency (IU/mg), FAVN came to 533 IU/mg and the Neutralization potency (IU/mg), RFFIT came to 1260 IU/mg. In test [2], the EC50 was found to be 0.052 µg/mL.

B2: Ch2G11 (antibody, V domains shown)
VH: EVQLVESGGGLVKPGGSLILSCAASGFTFSGFAMSWVRQTPEKRLEWVATISSGGTYTYSPDSVMGRFTISRDNAKNTLYLQMSSLRSEDTAMYYCARRLRRNYYSMDYWGQGTSVTVSS
VL: DVVLTQAPLSLPVNIGDQASISCKSTKSLLNSDGFTYLDWYLQKPGQSPQLLIYLVSNRFSGVPDRFSGSGSGTDFTLKISRVEAEDLGIYFCFQSNYLPFTFGSGTKLEIKR
For B2, in test [1], the Neutralization potency (IU/mg), FAVN was 8310 IU/mg and the Neutralization potency (IU/mg), RFFIT was determined as 1260 IU/mg. For the same molecule, the IC50 in test [3] turned out to be 0.11 µg/mL.

B3: Hu1A9-1 (antibody, V domains shown)
VH: QVQLVQSGAEVKKPGASVKVSCKASGYSFTDYIMLWVRQAPGQRLEWIGDIYPYYGSTSYNLKFKGKATLTVDTSASTAYMELSSLRSEDTAVYYCARQGGDGNYVLFDYWGQGTLVTVSS
VL: DIQMTQSPSSLSASVGDRVTITCKASQNVGTTVAWYQQKPGKAPKALIYSASYRYSGVPSRFSGSGSGTDFTLTISSLQPEDFATYYCQQYNSYPFTFGQGTKLEIKR
In test [2], B3 registered an EC50 of 0.025 µg/mL.

B4: Hu1A9-2 (antibody, V domains shown)
VH: B3 VH
VL: B3 VL with A46V
B4 returned an EC50 in test [2] of 0.016 µg/mL.

What is called EC50 is the concentration at which the effect is half-maximal. By IC50 is commonly meant the point on the concentration scale where inhibition reaches its midpoint. Higher therefore signals lower potency.

The values are drawn from US20150110781A1.
